In publication PMC3906126:

Columns and labels:
Test in all cases: ITC
[1] = target: WW1 domain of WWOX (residues 16–50) (human) (UniProt Q9NZC7)
[2] = target: WW1–WW2 tandem module of WWOX (residues 16–91) (human) (UniProt Q9NZC7)
[3] = target: WW2W domain of WWOX (WW2 domain, residues 57–91, with the Y85W substitution) (human) (UniProt Q9NZC7)
Sequence of WW2W domain of WWOX (WW2 domain, residues 57–91, with the Y85W substitution) (human) (Q9NZC7 57-91 Y85W): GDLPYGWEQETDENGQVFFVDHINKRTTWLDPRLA

Sequence of WW1 domain of WWOX (residues 16–50) (human) (Q9NZC7 16-50): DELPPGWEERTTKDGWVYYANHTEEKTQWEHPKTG
Sequence of WW1–WW2 tandem module of WWOX (residues 16–91) (human) (Q9NZC7 16-91): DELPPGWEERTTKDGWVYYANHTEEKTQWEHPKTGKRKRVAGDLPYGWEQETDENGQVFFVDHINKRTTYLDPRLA

Row | Substance | Kd [1] | dH [1] | Kd [2] | Kd [3] | dH [3]
1 | ErbB4_PY3 peptide (12-mer spanning the PY3 PPXY motif of the ICD of ErbB4) | 144 µM | -6.21 kcal/mol | 68 µM | 54 µM | -4.15 kcal/mol
2 | PY3_A+2 (ErbB4_PY3 peptide with alanine at position +2) | 287 µM | -3.63 kcal/mol | – | – | –
3 | PY3_A+4 (ErbB4_PY3 peptide with alanine at position +4) | 275 µM | -4.02 kcal/mol | – | – | –
4 | PY3_A+5 (ErbB4_PY3 peptide with alanine at position +5) | 157 µM | -11.4 kcal/mol | – | – | –
5 | PY3_A+6 (ErbB4_PY3 peptide with alanine at position +6) | 135 µM | -4.78 kcal/mol | – | – | –
6 | PY3_A−1 (ErbB4_PY3 peptide with alanine at position −1) | 161 µM | -3.33 kcal/mol | – | – | –
7 | PY3_A−2 (ErbB4_PY3 peptide with alanine at position −2) | 151 µM | -6.19 kcal/mol | – | – | –
8 | PY3_A−3 (ErbB4_PY3 peptide with alanine at position −3) | 113 µM | -3.67 kcal/mol | – | – | –
